The record followed here is patent EP4722370A1.

For test [1], the target named is his-tagged DLL3 antigen protein (UniProt Q9NYJ7). The test can be described thus: flow cytometry; transduced T cells with 3 ug/ml his-tagged DLL3, AF647 secondary antibody. On the technique in general: In flow cytometry, cells or beads pass a laser one at a time.
For test [2] the target is unchanged. The test can be described thus: flow cytometry; transduced T cells, method of the earlier example (his-tagged DLL3 staining).

UniProt Q9NYJ7, sequence (Q9NYJ7 27-492 limits assumed): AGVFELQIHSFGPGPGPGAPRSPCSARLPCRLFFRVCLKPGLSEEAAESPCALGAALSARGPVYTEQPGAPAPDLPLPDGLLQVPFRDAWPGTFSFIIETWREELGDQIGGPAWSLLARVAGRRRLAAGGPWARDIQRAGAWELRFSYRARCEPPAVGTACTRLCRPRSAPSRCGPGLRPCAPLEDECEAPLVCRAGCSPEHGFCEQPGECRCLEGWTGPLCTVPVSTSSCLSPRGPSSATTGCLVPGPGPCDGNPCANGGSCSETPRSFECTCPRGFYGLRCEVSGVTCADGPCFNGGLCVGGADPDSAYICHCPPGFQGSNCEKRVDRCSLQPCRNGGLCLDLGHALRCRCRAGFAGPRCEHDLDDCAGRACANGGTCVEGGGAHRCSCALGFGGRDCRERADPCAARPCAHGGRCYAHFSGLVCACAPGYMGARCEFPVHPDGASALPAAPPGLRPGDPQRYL

B1: DLL3-CAR09 (protein)
chain: DIVMTQSPLSLPVTPGEPASISCRASQTISDYLHWYLQKPGQSPQLLIKYASQSISGVPDRFSGSGSGSDFTLKISRVEAEDVGVYYCQQGHSFPLTFGQGTKLEIKGGGGSGGGGSGGGGSEVQLVQSGAEVKKPGASVKVSCKASGYTFTSYWMHWVRQAPGQRLEWMGTIYPGNSDTRYNQKFKDRVTITADTSASTAYMELSSLRSEDTAVYYCTRSYDYGDLDYWGQGTTVTVSSAAAIEVMYPPPYLDNEKSNGTIIHVKGKHLCPSPLFPGPSKPFWVLVVVGGVLACYSLLVTVAFIIFWVRSKRSRLLHSDYMNMTPRRPGPTRKHYQPYAPPRDFAAYRSRVKFSRSADAPAYQQGQNQLYNELNLGRREEYDVLDKRRGRDPEMGGKPRRKNPQEGLYNELQKDKMAEAYSEIGMKGERRRGKGHDGLYQGLSTATKDTYDALHMQALPPR
In the case of B1, the CAR expression level (% of T cells stained with his-tagged DLL3 antigen protein) in test [1] is 69%; in test [2], 74%.
